Data set [1] has as its target T7 RNA polymerase Y639L/H784A/K378R (Bacteriophage T7) (UniProt P00573). Particulars: MNA yield, 8 mM MgCl2, 2.5 mM MnCl2.
Data set [2] deals with von Willebrand factor (vWF) (Homo sapiens) (UniProt P04275). Nature of the data set: filter. The settings on record: 2'-OMe A,G,U; 2'-deoxy C; pool; DPBS with Ca2+ and Mg2+.
The target of data set [3] is von Willebrand factor A1 domain (Homo sapiens) (UniProt P04275). Nature of the data set: filter. Particulars: 2'-OMe A,G,U; 2'-deoxy C; pool; DPBS with Ca2+ and Mg2+.
Data set [4] has as its target T7 RNA polymerase P266L/Y639L/H784A/K378R (Bacteriophage T7) (UniProt P00573). Particulars: 11 ug/ml enzyme (65 at 2.6, 13 at 0.66, 8.3 at 0.16 ug/ml); 8 mM MgCl2, 2.5 mM MnCl2.
For data set [5], the target named is T7 RNA polymerase Y639L/H784A/K378R (Bacteriophage T7) (UniProt P00573). The settings on record: 2.1 ug/ml enzyme; 2'-OMe NTPs, 8 mM MgCl2, 2.5 mM MnCl2, 37 C.
The test system of the next data set is IgE (Homo sapiens). Kind of data set: filter. Particulars: 2'-OMe A,G,U; 2'-deoxy C; pool; DPBS with Ca2+ and Mg2+.

Like-named read-outs stand apart in the source and are kept apart here.

The sequence “GGGAGAGACAAGCTTGGGTCNNNNNNNNNNNNNNNNNNNNNNNNNNNNNNNNNNNNNNNNAGAAGAGAAAGAGAAGTTAATTAAGGATCCTCAG (double strand)” returned an activity in data set [1] (dCmD yield 327 pmol) of 404 pmol.
A word on the Kd: it is the concentration at which binding is half-saturated. Take “GGGAGAATTCCGACCACAAGNNNNNNNNNNNNNNNNNNNNNNNNNNNNNNNNNNNNNNNNCATATGTGCGTCTACATGGATCCTCA [ARC4218 dCmD round 6 pool, vWF selection]”: the Kd in data set [2] amounted to 2 nM; in data set [3] it was 4 nM.
Consider “TAATACGACTCACTATAGGGGAGTACAATAACGTTCTCGNNNNNNNNNNNNNNNNNNNNNNNNNNNNNNGGATCGTTACGACTAGCATCGATG (double strand) [ARC2118 transcription template]”, for which the results for the activity (normalized MNA transcript yield) in data set [4] and in data set [5] were 130 and 100, respectively.
Sequence “GGGAGAATTCCGACCAGAAGCTTNNNNNNNNNNNNNNNNNNNNNNNNNNNNNNNNNNNNNNNNCATATGTGCGTCTACATGGATCCTCA (double strand)” gave an activity in data set [1] (dCmD yield 365 pmol) of 473 pmol.
For the sequence “GGGAGAATTCCGACCACAAGNNNNNNNNNNNNNNNNNNNNNNNNNNNNNNNNNNNNNNNNCATATGTGCGTCTACATGGATCCTCA [ARC4218 dCmD round 6 pool, IgE selection]”, the Kd in the data set on IgE (Homo sapiens) stood at 8 nM.
